From US12624112 (MABWELL SHANGHAI BIOSCIENCE, dated 2026)

Experiments:
[1] = molecular target: T1, ST2 on the effector cells (KU812, KU812/NF-κB-1#, HUVEC, HMC-1) (human, UniProt Q01638 19-556); test: cell-based or functional assay
T1 sequence (looked up): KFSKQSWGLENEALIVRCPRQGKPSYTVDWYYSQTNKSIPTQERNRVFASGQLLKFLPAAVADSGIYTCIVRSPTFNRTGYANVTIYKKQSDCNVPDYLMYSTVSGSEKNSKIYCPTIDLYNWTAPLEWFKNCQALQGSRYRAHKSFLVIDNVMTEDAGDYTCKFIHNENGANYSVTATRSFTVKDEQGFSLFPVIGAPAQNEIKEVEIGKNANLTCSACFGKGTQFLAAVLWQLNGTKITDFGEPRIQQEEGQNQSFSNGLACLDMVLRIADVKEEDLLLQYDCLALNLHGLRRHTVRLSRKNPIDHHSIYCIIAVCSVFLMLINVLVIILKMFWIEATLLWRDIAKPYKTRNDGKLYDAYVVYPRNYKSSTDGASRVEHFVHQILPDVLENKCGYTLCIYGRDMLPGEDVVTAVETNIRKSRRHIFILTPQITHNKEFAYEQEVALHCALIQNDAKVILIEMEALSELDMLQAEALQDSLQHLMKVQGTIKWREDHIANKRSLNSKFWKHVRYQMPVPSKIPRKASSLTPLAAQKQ

[2] = molecular target: T1, ST2 on the effector cells (KU812, …); test: cell-based or functional assay; remark: listed apart in the source
Human ST2-his [3] = molecular target: T2, Human ST2-his (human, UniProt Q01638-2 19-328, limits assumed); test: SPR Biacore X100, ratio of kd at pH 5.5 to kd at pH 7.4
T2 construct: Expressed in CHO-K1; The printed range starts at Met1; also called human ST2 fused with a 6-histidine tag at the C-terminus
T2 sequence: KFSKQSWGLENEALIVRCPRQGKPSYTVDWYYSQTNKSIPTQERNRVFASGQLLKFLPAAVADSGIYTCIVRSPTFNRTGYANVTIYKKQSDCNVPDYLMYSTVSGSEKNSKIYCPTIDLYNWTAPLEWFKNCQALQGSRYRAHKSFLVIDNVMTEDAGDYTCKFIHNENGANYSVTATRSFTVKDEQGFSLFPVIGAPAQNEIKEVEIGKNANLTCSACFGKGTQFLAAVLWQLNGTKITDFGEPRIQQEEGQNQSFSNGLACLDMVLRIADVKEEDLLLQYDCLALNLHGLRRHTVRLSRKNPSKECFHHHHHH
Procedure: (§1) The experiment on the interaction between the anti-human ST2 antibodies and human ST2-his was performed using Biacore X100.
(§2) Each anti-human ST2 antibody was diluted to 2 µg/mL and captured on the surface of a protein A chip for a capture time of 60 s. Following the antibody capture, a solution of human ST2-his (2-fold gradient dilution from a starting concentration of 20 nM, to obtain 6 concentrations in total) was injected. Association was monitored for 180 s and dissociation was monitored for 700 s, and the sensor surface was regenerated by injecting a solution of glycine at pH 2.0. Kinetic data were analyzed using a simple 1:1 binding model.

Human ST2-his [4] = molecular target: T2, Human ST2-his; test: SPR Biacore X100, antibody captured on protein A chip, human ST2-his injected, dissociation at pH 5.5
Procedure: as §1, §2

[5] = molecular target: T1, ST2 on the effector cells (KU812, …); test: cell-based or functional assay; remark: listed apart in the source
Human ST2-fc (human) = Human ST2-fc (human) (UniProt Q01638); test: competition ELISA, coated ST2-fc, competitor IL33-his
Human ST2-his [6] = molecular target: T2, Human ST2-his; test: SPR Biacore X100, antibody captured on protein A chip, human ST2-his injected, pH 7.4
Procedure: as §1, §2

[7] = molecular target: T1, ST2 on the effector cells (KU812, …); test: cell-based or functional assay; remark: listed apart in the source
[8] = molecular target: T1, ST2 on the effector cells (KU812, …); test: cell-based or functional assay; remark: listed apart in the source

- IC50, inhibition of KU812-IL5 production promoted by oxidized IL33 [1]: 0.0161 µg/mL
- Maximum inhibition rate, KU812-IL5 production by oxidized IL33 [1]: 101%
- Relative activity, KU812-IL5 production by oxidized IL33 [1]: 137%
- IC50, inhibition of HMC-1 IL8 production promoted by IL33 [2]: 0.334 µg/mL
- Maximum inhibition rate, HMC-1 IL8 production by IL33 [2]: 85.6%
- Relative activity, HMC-1 IL8 production by IL33 [2]: 30.1%
- kd ratio of pH 5.5/pH 7.4 (Human ST2-his [3]): 7.26
- Kd (Human ST2-his [4]): 1.43 nM
- koff (Human ST2-his [4]): 0.00255 s⁻¹
- kon (Human ST2-his [4]): 1.79e+06 M⁻¹ s⁻¹
- IC50, inhibition of KU812-IL5 production promoted by IL-33 (human IL33-his) [5]: 0.0874 µg/mL
- Maximum inhibition rate, KU812-IL5 production by IL-33 [5]: 99.4%
- Relative activity compared with CNTO7160, KU812-IL5 production by IL-33 [5]: 131%
- IC50 (Human ST2-fc (human)): 0.465 µg/mL
- Maximum inhibition rate (Human ST2-fc (human)): 89.1%
- Relative activity compared with CNTO7160 (Human ST2-fc (human)): 188%
- Kd (Human ST2-his [6]): 0.452 nM
- koff (Human ST2-his [6]): 0.000351 s⁻¹
- kon (Human ST2-his [6]): 777000 M⁻¹ s⁻¹
- IC50, inhibition of HUVEC-IL6 production promoted by IL33 [7]: 16.1 µg/mL
- Maximum inhibition rate, HUVEC-IL6 production by IL33 [7]: 83%
- Relative activity, HUVEC-IL6 production by IL33 [7]: 16.9%
- IC50, inhibition of KU812-IL5 production promoted by reduced IL33 [8]: 2.87 µg/mL
- Maximum inhibition rate, KU812-IL5 production by reduced IL33 [8]: 96.7%
- Relative activity, KU812-IL5 production by reduced IL33 [8]: 51.1%
B1: 5888-379-H1L0 (antibody, human IgG4 S228P, kappa, V domains shown)
VH: QVQLVQSGAEVKKPGASVKVSCKASGYTFINYGMNWVRQAPGQRLEWMGWINTYIGEPTYGDNFKGRVTITRDTSASTAYMELSSLRSEDTAVYYCAREGEGFAYWGQGTLVTVSS
VL: DIQMTQSPSSLSASVGDRVTITCKSSQSLLYSGNQNNYLAWYQQKPGKVPKLLIYGASTRESGVPSRFSGSGSGTDFTLTISSLQPEDVATYYCQNDHSYPYTFGGGTKVEIKR
notes: Humanized antibody
